Measurements taken from paper PMC13078889.

Legend:
LARP6 [1] = assay: TR-FRET competition; conditions: vs DIG-labeled A1 RNA; not in the material
LARP6 [2] = assay: ITC; conditions: not in the material

Substance | IC50 (LARP6 [1]) | Kd (LARP6 [2]) | Kd (LARP6 [2]; only stated as higher Kd than COL1A1-TIS, value in Table 2 not in material)
A1 RNA (COL1A1 5'SL, 48 nt) | 6.84 nM | – | –
COL1A1-TIS | 2.71 nM | 400 nM | –
COL1A1-5'SL (A1), ITC | – | – | > 400 nM
